From patent WO2007023782A1 (dated 2007)

How the values were obtained:
[1] = target: T1, nmAb-KT (neutralizing monoclonal antibody against HM-1 killer toxin); assay: SPR (BIAcore X), nmAb-KT immobilised on CM5 chip; Ka = kon/koff
T1 construct: also called nmb-KT; HM-1 neutralizing monoclonal antibody

[2] = target: T2, BSA (Bovine serum albumine) (bovine, UniProt P02769 25-607); assay: SPR (BIAcore X), BSA negative control
T2 construct: Negative control; also called negative control

[3] = target: T1, nmAb-KT (neutralizing monoclonal …); assay: SPR (BIAcore X), nmAb-KT immobilised on CM5 chip, ScFv 15.75-250 nM as analyte, 25 C, HBS-EP
[4] = target: T1, nmAb-KT (neutralizing monoclonal …); assay: SPR (BIAcore X), nmAb-KT immobilised, differs in the last digit from Table 2
[5] = target: T1, nmAb-KT (neutralizing monoclonal …); assay: SPR (BIAcore X), nmAb-KT immobilised; ratio of Ka values
[6] = target: T1, nmAb-KT (neutralizing monoclonal …); assay: SPR (BIAcore X), nmAb-KT immobilised, rounded against Table 2

T2 sequence (P02769 25-607 limits assumed): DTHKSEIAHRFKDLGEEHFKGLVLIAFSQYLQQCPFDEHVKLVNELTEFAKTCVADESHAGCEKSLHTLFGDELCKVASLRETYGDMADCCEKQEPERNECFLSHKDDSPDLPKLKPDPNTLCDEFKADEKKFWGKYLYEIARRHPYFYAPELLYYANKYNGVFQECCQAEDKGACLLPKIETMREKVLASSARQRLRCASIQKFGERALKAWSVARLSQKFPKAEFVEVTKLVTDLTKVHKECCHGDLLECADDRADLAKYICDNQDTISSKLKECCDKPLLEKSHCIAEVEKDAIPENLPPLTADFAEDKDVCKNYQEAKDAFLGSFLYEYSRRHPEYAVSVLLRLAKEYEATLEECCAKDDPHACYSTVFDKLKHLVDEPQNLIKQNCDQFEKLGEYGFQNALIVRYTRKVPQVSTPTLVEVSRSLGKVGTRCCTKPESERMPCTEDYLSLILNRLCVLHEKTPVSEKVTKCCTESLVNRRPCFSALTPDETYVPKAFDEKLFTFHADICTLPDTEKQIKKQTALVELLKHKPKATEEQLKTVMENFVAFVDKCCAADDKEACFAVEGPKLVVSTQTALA

B1: ScFv-A4 (scFv)
scFv: MAQVKLQQSGAELMKPGASVKISCKATGYTFSSYWIEWVKQRPGHGLEWIGEILPGSGSTNYNEKFKGKATFTADTSSNTAYMQLSSLTSEDSAVYYCARYYGNYYAMDYWGQGTTVTVSSGGGGSGGGGSGGGGSDIVLTQSPAIMSASPGEKSPSPAVSAQVYVPATCTGTSRSQKPPPNPGFMAHPTWLLESQVASVAVGLENSYSLTISSMEAEDVATYYCFQGSGYPLTFGSGTKLEIKRAAAGAPVPYPDPLEPR
notes: Mouse anti-idiotypic single chain Fv, VH-(Gly4Ser)3 linker-VL, with a C-terminal E-Tag; also called ScFv KTIdAb; anti-idiotypic ScFv
[1]
  Ka: 4.48e+07 M⁻¹
[2]
  binding result: no binding (tested: 15.75 nM-250 nM ScFv)
[3]
  koff: 0.005 s⁻¹
  kon: 224000 M⁻¹ s⁻¹

B2: ScFv-A2 (scFv, V domains shown)
VH: QVKLQQSGAELMKPGASVKISCKATGYTFSSYWIEWVKQRPGHGLEWIGEILPGSGSTNYNEKFKGKATFTADTSSNTAYMQLSSLTSEDSAVYYCARYYGNYYAMDYWGQGTTVTVSS
notes: as for B1
[4]
  Ka: 6.65e+07 M⁻¹
[1]
  Ka: 6.66e+07 M⁻¹
[5]
  fold of affinity constant Ka against ScFv-A1 or ScFv-A4: ~1.2 fold
  fold of affinity constant Ka against ScFv-A3: ~2 fold
[2]
  binding result: no binding (tested: 15.75 nM-250 nM ScFv)
[3]
  koff: 0.00458 s⁻¹
  kon: 305000 M⁻¹ s⁻¹

B3: ScFv-A1 (scFv)
scFv: MAQVKLQQSGAELMKPGASVKISCKATGYTFSSYWIEWVKQRPGHGLEWIGEILPGSGSTNYNEKFKGKATFTADTSSNTAYMQLSSLTSEDSAVYYCARYYGNYYAMDYWGQGTTVTVSSGGGGSGGGGSGGGGSDIVLTQSPAIMSASPGEKVTITCSVSSSISSSNLHWYQQKSETSPKPWIYGTSNLASGVPGRFSGSGSGNSYSLTISSMEAEDVATYYCFQGSGYPLTFGSGTKLEIKRAAAGAPVPYPDPLEPR
notes: also called ScFv-Al; ScFv KTIdAb
[1]
  Ka: 4.79e+07 M⁻¹
[2]
  binding result: no binding (tested: 15.75 nM-250 nM ScFv)
[6]
  Ka: 4.8e+07 M⁻¹
[3]
  koff: 0.00507 s⁻¹
  kon: 243000 M⁻¹ s⁻¹

B4: ScFv-A3 (scFv)
scFv: MAQVKLQQSGAELMKPGASVKISCKATGYTFSSYWIEWVKQRPGHGLEWIGEILPGSGSTNYNEKFKGKATFTADTSSNTAYMQLSSLTSEDSAVYYCARYYGNYYAMDYWGQGTTVTVSSGGGGSGGGGSGGGGSDIVLTQSPAIMSASPGEKVTITCSVSSSRSSSNLHWYQQKSETSPKPWIYGTSNLASGVPGRFSGSGSGKLLLSHDQQHEAEDVATYYCFQGSGYPLTFGSGTKLEIKRAAAGAPVPYPDPLEPR
notes: as for B1
[4]
  Ka: 3.04e+07 M⁻¹
[1]
  Ka: 3.05e+07 M⁻¹
[2]
  binding result: no binding (tested: 15.75 nM-250 nM ScFv)
[3]
  koff: 0.00751 s⁻¹
  kon: 229000 M⁻¹ s⁻¹
